This note sets out measurements from patent US20240116985A1 (published 2024).

Starred links: 1 amine or outer side, 2 acyl side, 3 side chain; linkers in the order of their positions; H or OH if unused. Positions of bridges follow the written chain, without caps; N, C: chain ends. Non-standard residues stand in square brackets, D forms with d. Primed or numbered codes have the meaning given here. *: point of attachment. PyrS2″ = (S)-3-amino-1-((pent-4-en-1-yloxy)carbonyl)pyrrolidine-3-carboxylic acid (stapling residue), C=CCCCOC(=O)N1CC[C@@](N[*:1])(C(=O)[*:2])C1; B5(18) = 2,2-bis(4-pentenyl)glycine (2-amino-2-(pent-4-en-1-yl)hept-6-enoic acid), stitching residue, C=CCCCC(CCCC=C)(N[*:1])C(=O)[*:2]; TfeGA = (S)-2-amino-3-((carboxymethyl)(2,2,2-trifluoroethyl)amino)propanoic acid, O=C([C@H](CN(CC(=O)[*:3])CC(F)(F)F)N[*:1])[*:2]; B5(3) = 2,2-bis(4-pentenyl)glycine (stitching residue), C=CCCCC(CCCC=C)(N[*:1])C(=O)[*:2]; Me3AdamantC = 3,5,7-trimethyladamantane-1-carbonyl, CC12CC3(C)CC(C)(C1)CC(C(=O)*)(C2)C3; Phe(3-Cl) = N[C@@H](Cc1cccc(Cl)c1)C(=O)O; Phe(2-Br) = N[C@@H](Cc1ccccc1Br)C(=O)O; Phe(2-Cl) = N[C@@H](Cc1ccccc1Cl)C(=O)O; Bta = N[C@@H](Cc1csc2ccccc12)C(=O)O; αAllylPro = C=CC[C@@]1(C(=O)O)CCCN1; tBuAla = CC(C)(C)C[C@H](N)C(=O)O; 3Thi = N[C@@H](Cc1ccsc1)C(=O)O; AdamantC = not defined here; PyrS2(4) = not defined here; TfeGA″ = not defined here; Octanoyl = CCCCCCCC(=O)*

The labels stand for the following.
T1: B-cat-Halo (UniProt P35222 1-781, HaloTag NanoBRET 618 Ligand bound to the HaloTag in the assay)
T1 sequence (looked up): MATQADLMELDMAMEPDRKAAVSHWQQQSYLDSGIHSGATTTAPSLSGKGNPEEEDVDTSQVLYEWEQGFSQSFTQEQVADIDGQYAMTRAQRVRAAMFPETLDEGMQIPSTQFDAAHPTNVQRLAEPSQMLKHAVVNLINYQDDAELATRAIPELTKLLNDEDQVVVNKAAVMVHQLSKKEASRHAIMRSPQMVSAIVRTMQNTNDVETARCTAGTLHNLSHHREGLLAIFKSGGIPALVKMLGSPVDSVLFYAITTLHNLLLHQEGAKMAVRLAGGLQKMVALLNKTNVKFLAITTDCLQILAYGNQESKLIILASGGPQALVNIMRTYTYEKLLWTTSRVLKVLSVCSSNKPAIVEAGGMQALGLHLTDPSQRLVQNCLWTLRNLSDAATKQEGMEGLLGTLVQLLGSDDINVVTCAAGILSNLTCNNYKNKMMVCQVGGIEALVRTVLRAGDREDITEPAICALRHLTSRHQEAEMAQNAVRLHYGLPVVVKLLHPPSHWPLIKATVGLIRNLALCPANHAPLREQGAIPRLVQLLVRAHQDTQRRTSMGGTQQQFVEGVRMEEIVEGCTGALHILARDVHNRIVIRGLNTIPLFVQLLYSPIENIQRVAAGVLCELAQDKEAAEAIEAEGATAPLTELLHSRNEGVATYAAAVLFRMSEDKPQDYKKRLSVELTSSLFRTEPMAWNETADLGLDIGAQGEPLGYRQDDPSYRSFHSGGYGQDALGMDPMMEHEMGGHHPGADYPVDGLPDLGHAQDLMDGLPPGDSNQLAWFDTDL

T2: B-cat-Halo (UniProt P35222 1-781)
T2 sequence (looked up): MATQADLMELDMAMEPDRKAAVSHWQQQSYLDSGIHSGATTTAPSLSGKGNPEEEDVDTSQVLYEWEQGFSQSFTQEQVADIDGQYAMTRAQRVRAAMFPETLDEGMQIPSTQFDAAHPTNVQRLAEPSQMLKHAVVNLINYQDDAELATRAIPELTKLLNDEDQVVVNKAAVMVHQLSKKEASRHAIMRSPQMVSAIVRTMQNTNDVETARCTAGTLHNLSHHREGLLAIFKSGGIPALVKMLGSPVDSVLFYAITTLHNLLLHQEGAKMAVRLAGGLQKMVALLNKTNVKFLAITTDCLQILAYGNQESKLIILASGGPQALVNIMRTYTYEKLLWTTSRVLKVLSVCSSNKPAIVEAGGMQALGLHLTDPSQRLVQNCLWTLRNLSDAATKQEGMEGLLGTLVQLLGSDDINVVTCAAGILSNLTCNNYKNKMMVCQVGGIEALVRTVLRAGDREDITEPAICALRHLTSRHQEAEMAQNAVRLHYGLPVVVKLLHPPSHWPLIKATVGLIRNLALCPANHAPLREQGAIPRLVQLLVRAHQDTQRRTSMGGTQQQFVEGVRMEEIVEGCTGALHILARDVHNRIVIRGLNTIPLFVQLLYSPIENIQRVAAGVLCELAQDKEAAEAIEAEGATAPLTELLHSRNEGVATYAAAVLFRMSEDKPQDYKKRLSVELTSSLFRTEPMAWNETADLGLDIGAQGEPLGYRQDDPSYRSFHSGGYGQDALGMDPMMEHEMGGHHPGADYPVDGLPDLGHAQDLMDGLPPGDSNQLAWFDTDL

B1: I-915 (peptide)
peptide: Ac-[αAllylPro]D[tBuAla][B5(3)]DDAAFN[PyrS2(4)][3Thi][Bta]QK(2Napc)-NH2
modifications: staple 1-4, 4-11; reading uncertain; also: printed as Ac-PL3-Asp-Npg-B5-Asp-Asp-Ala-Ala-Phe-Asn-PyrS2-3Thi-BztA-Gln-[2Napc]Lys-NH2
B2: I-919 (peptide)
peptide: Ac-[αAllylPro]D[tBuAla][B5(3)]DDAAFN[PyrS2(4)][3Thi][Bta]QK(AdamantC)-NH2
modifications: staple 1-4, 4-11; reading uncertain; also: printed as Ac-PL3-Asp-Npg-B5-Asp-Asp-Ala-Ala-Phe-Asn-PyrS2-3Thi-BztA-Gln-[AdamantC]Lys-NH2
B3: I-924 (peptide)
peptide: Ac-[αAllylPro]D[tBuAla][B5(3)]D[TfeGA]AAFN[PyrS2″][Phe(2-Br)][Bta]Q-NH2
modifications: staple 1-4, 4-11
B4: I-918 (peptide)
peptide: Ac-[αAllylPro]D[tBuAla][B5(3)]DDAAFN[PyrS2″][3Thi][Bta]QK(Octanoyl)-NH2
modifications: staple 1-4, 4-11; not fully specified; printed as Ac-PL3-Asp-Npg-B5-Asp-Asp-Ala-Ala-Phe-Asn-PyrS2-3Thi-BztA-Gln-[Oct]Lys-NH2
B5: I-920 (peptide)
peptide: Ac-[αAllylPro]D[tBuAla][B5(3)]DDAAFN[PyrS2″][3Thi][Bta]QK(Me3AdamantC)-NH2
modifications: staple 1-4, 4-11
B6: I-926 (peptide)
peptide: Ac-[αAllylPro]D[tBuAla][B5(3)]D[TfeGA]AAFN[PyrS2″][Phe(3-Cl)][Bta]Q-NH2
modifications: staple 1-4, 4-11; not fully specified
B7: I-925 (peptide)
peptide: Ac-[αAllylPro]D[tBuAla][B5(3)]D[TfeGA]AAFN[PyrS2″][Phe(3-Cl)][Bta]Q-NH2
modifications: staple 1-4, 4-11; not fully specified
B8: I-923 (peptide)
peptide: Ac-[αAllylPro]D[tBuAla][B5(3)]D[TfeGA]AAFF[PyrS2″][Phe(2-Cl)][Bta]Q-NH2
modifications: staple 1-4, 4-11
B9: I-1006 (peptide)
peptide: Ac-[αAllylPro]D[tBuAla][B5(18)]D[TfeGA]AKFN[PyrS2″][Phe(2-Cl)][Bta]Q-NH2
modifications: staple 1-4, 4-11
B10: I-1011 (peptide)
peptide: Ac-[αAllylPro]D[tBuAla][B5(18)]D[TfeGA]KAFN[PyrS2″][Phe(2-Cl)][Bta]Q-NH2
modifications: staple 1-4, 4-11
B11: I-1010 (peptide)
peptide: Ac-[αAllylPro]D[tBuAla][B5(18)]D[TfeGA]IAFN[PyrS2″][Phe(2-Cl)][Bta]Q-NH2
modifications: staple 1-4, 4-11
B12: I-1007 (peptide)
peptide: Ac-[αAllylPro]D[tBuAla][B5(18)]D[TfeGA]LAFN[PyrS2″][Phe(2-Cl)][Bta]Q-NH2
modifications: staple 1-4, 4-11
B13: I-1009 (peptide)
peptide: Ac-[αAllylPro]D[tBuAla][B5(18)]D[TfeGA″]SAFN[PyrS2″][Phe(2-Cl)][Bta]Q-NH2
modifications: staple 1-4, 4-11; reading uncertain
B14: I-1004 (peptide)
peptide: Ac-[αAllylPro]D[tBuAla][B5(18)]D[TfeGA]ASFN[PyrS2″][Phe(2-Cl)][Bta]Q-NH2
modifications: staple 1-4, 4-11
B15: I-1002 (peptide)
peptide: Ac-[αAllylPro]D[tBuAla][B5(18)]D[TfeGA]ALFN[PyrS2″][Phe(2-Cl)][Bta]Q-NH2
modifications: staple 1-4, 4-11

For the first test, the target named is T1, B-cat-Halo. Nature of the test: cell-based or functional assay.
Regarding B1, the “NanoBRET Abs IC50” value was determined as 15.5 µM.

In the case of B2, the “NanoBRET Abs IC50” value was found to be 15.2 µM.

Consider B3, for which the “NanoBRET Abs IC50” value came out at 3.3 µM.

For the molecule B4, the “NanoBRET Abs IC50” value was 11.1 µM.

Regarding B5, the “NanoBRET Abs IC50” value is 17.7 µM.

As to B6, the “NanoBRET Abs IC50” value stood at 29.9 µM.

For the molecule B7, the “NanoBRET Abs IC50” value stood at 20 µM.

Consider B8, for which the “NanoBRET Abs IC50” value stood at 6 µM.

The target in a further test is T2, B-cat-Halo. Nature of the test: cell-based or functional assay.
In the case of B9, the “NanoBRET Abs IC50” value was greater than 20 µM.

On to B10, for which the “NanoBRET Abs IC50” value was found to be 20.8 µM.

Take B11: the “NanoBRET Abs IC50” value was 13.3 µM.

On to B12, for which the “NanoBRET Abs IC50” value came to 24.9 µM.

In the case of B13, the “NanoBRET Abs IC50” value was found to be 33.3 µM.

For the molecule B14, the “NanoBRET Abs IC50” value was 10.6 µM.

Consider B15, for which the “NanoBRET Abs IC50” value worked out at 29.8 µM.
